Results published in PMC3177201.

Experiments:
Prp24 oRRM4 [1] = target: T1, Prp24 oRRM4 (Saccharomyces cerevisiae, UniProt P49960 292-400); assay: fluorescence anisotropy
T1 sequence: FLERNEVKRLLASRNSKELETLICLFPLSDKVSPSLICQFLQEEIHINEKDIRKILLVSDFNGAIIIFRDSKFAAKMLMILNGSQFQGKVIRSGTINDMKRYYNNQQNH

Prp24 oRRM4 [2] = target: T1, Prp24 oRRM4; assay: fluorescence anisotropy; remark: listed apart in the source

Which Kd (Prp24 oRRM4 [1]) does the source give for AGAGAUGAUCAGCAGUUCCCCUGCAUAAGGAUGAACCGUU (structured_RNA) [U6 nt 49-88, 5'-Cy5] here?
The Kd was 3.1 µM.

B1: U2 nt 1-51, 5'-FITC (ssRNA)
RNA: ACGAAUCUCUUUGCCUUUUGGCUUAGAUCAAGUGUAGUAUCUGUUCUUUUC
Does B1 bind (Prp24 oRRM4 [2])?
Result: binds
